Experimental data as given in paper PMC4759255.

Target: T1, His-LexA (Synechocystis sp. PCC 6803) (UniProt P73722)
T1 sequence: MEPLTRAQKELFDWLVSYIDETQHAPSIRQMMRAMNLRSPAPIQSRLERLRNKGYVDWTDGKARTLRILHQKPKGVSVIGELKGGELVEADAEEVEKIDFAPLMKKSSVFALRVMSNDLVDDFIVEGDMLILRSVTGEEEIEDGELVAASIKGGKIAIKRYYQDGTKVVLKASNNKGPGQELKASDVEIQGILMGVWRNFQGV
Assay: EMSA
Details: Roche DIG gel shift kit 2nd generation buffer per manufacturer plus 1 mM DTT, 25 min at room temperature, 6% polyacrylamide gel; 5x and 50x unlabeled …

Q: Which binding does the source give for “TTGTTCAAGATCATTAGGCTTTAGTATATTTATAGTGATCAAAAAAGCAAGTGGTGAAAGAAACACCCAGACAAATATTCACAAAACTTAATTTTACTTAACAAATCATAATCCAGTTACGCAGTTACCACCTACACGGGAACCAGAACGCACGATTCCCAAGCCGGAAGAAATTACTAAGCATGGCTCATAGGATGTTCTAC (double strand) [pilA7 promoter]” here?
A: Its binding is “binds”.

Q: Which binding does the source give for “TGGGCAGGGTAAATTGATTTTTTCTTGTTGTTTGATCCCATTTTCCAGTCTTTTTGACTTCCATTCAGTCAGGATAATTTTTGCAGTTTTTTTATGGAGTTTTGATAACATTGAGCTTTGCCCCCGGCGATCGCCTAGGGATAAACAATAAACGTGTGAACTAATATGCCTGGATTTATCCCTGGATTGACATTGTTTTTGCC (double strand) [slr1670 promoter]” here?
A: The binding was “binds”.

Q: How did the binding turn out when “TGGGATCAAACAACAAGAAAAAATCAATTTACCCTGCCCATGGCAATAGTTTTAAGGTTAACAAAAAAAATAGAATTTACCGCAATCGACGGGTAAATTTCCAGAGGATACCCCCAACTCCAGAAGCAGAAATCTTGCCAGAAAAGCTTTTTCTGTTACTATACTTAACAAGTAACTACTTTTTCC (double strand) [ggpS promoter]” was run?
A: The binding was “binds”.

Q: How did the binding turn out when “GTGACAACTAACATCACCTAGATGATAAGTTAATTTACAACAAATGATTGTTAGCCAGCTCACCAAAACCTGTGACAATAAACACCAAAACAGTTTACTTGTTTCTATAATTTTCCCTGAAACTGGGGTTTGAGAGGGTCTAGGGGAGAATTTAGTTATTGTTTGGATATATTGTCATGGCACCACAAAAGCCGTCAACAAA (double strand) [pilA9 promoter]” was run?
A: Its binding is “binds”.
